According to patent US20180258175A1 (ABLEXIS, published 2018):
Changes are numbered by the printed parent chain.

B1: CCK-415A (antibody, V domains shown)
VH: QVQLQESGPGLVKPSETLSLTCTVSGGSISSSYWTWIRQPPGKGLEWIGYIHYSGSTNYNPSLKSRVTISVDTSKNQFSLKLSSVTAADTAVYYCARGFDYWGQGTLVTVSS
VL: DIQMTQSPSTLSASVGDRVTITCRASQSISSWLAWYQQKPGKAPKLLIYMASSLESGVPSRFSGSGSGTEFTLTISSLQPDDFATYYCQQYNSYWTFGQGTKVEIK
notes: AlivaMab chimeric IgG, human kappa LC
B2: CCK-416A (antibody, V domains shown)
VH: EVQLVESGGDLVQPGGSLRLSCADSRFTFSSYSMNWVRQAPGKGLEWVSYISPSSSTIYYADSVRGRFTISRDNAKNSLYLQMNSLRNEDTAVYYCARDFPHDYGYYPHYFDYWGQGTLVTVSS
VL: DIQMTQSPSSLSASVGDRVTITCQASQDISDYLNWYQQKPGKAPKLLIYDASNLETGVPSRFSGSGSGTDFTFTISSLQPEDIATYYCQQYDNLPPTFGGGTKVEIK
notes: as for B1
B3: CCK423A-IgG1κ (fully human) (antibody, V domains shown)
VH: QVQLEQSGAEVKRPGASVKVSCKASGYTFTGYYMHWVRQAPGQGLEWMGWINPNRGDTNYAQKFQGRVTMTRDTSISTAYMELSRLRSDDTAVYYCARDLEGGGPFDYWGQGTLVTVSS
VL: DIVMTQTPLSLPVTPGEPASISCRSSQSLLDSDDGNTYLDWYLQKPGQSPQLLIYTLSYRASGVPDRFSGSGSGTDFTLKISRVEAEDVGVYYCMQRIEFPSTFGQGTRLEIK
notes: also called Human IgG1κ; CCK423A-I IgG1κ
B4: CCK423A-IgG2κ (fully human) (antibody, V domains shown)
VH: B3 VH
VL: B3 VL
notes: also called Human IgG2κ
B5: CCK423A-IgG4κ (fully human) (antibody, V domains shown)
VH: B3 VH
VL: B3 VL
notes: also called Human IgG4κ; CCK423A-IgG4K
B6: CCL-213A (antibody, V domains shown)
VH: QVQLQESGPGLVKPSETLSLTCTVSGGSISSYYWSWIRQPAGKGLEWIGRIYTSGSTKNPSLKSRVTMSVDTSKNQFSLKLSSVTAADTAVYYCARLTVVGALDYWGQGTLVTVSS
VL: not shown
notes: AlivaMab chimeric IgG, human lambda LC
B7: CCL-325A (antibody, V domains shown)
VH: QVQLQESGPGLVKPSETLSLTCTVSGGSISSYYWSWIRQSAGKGLEWIGHIYTSGSTNYNPSLKSRVTMSVDTSKNQFSLKLSSVTAADTAVYYCARERTVVTYFDYWGQGTLVTVSS
VL: not shown
notes: as for B6
B8: CCL-216A (antibody, V domains shown)
VH: QVQLQESGPGLVKPSETLSLTCTVSGDSISNYYWSWIRQPAGKGLEWIGRIYTSGSTNNNPSLKSRVTMSVDTSKNQFSLKLSSVTAADTAVYYCARERINWFDPWGQGTLVTVSS
VL: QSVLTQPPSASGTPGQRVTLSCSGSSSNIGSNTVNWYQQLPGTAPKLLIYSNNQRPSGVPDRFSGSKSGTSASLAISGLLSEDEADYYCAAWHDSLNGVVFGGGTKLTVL
notes: as for B6
B9: CCL-328A (antibody, V domains shown)
VH: B8 VH with D27G, N31S, N59Y, V71I, E98S, I100L, N101G, W102I, P105Y
VL: not shown
notes: as for B6
B10: CCL-309A (antibody, V domains shown)
VH: EVQLVESGGGLVQPGGSLRLSCAASGFTFSTYSMNWVRQAPGKGLEWVSYISSSSAIIYYADSVKGRFTISRDNAKNSLYLQMNSLRDEDTAVYYCARDLPITMIVVVMPDAFDIWGQGTMVTVSS
VL: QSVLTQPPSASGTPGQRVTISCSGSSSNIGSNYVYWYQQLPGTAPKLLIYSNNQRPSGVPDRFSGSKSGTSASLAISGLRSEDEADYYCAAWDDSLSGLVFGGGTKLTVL
notes: as for B6
B11: CCL-337A (antibody, V domains shown)
VH: QVQLQESGPGLVKPSETLSLTCTVSGGSINSYYWSWIRQPAGKGLEWIGRIYTSGNTNYNPSLKSRVTMSVDTSKNLFSLKLSSVTAADTAVYYCARERLTGYFDYWAQGTLVTVSS
VL: not shown
notes: as for B6
B12: CCL-247A (antibody, V domains shown)
VH: B11 VH with G26D, N30S, N56S, L77Q, S83T, L100I, G102S, Y103F, Y106P, A108G
VL: not shown
notes: as for B6
B13: CCL-211A (antibody, V domains shown)
VH: QVQLQESGPGLVKPSETLSLTCTVSGGSISSYYWSWIRQPAGKGLEWIGRIYISGTTNYNPSLMSRVTMSVDTSKNQFSLKLTSVTAADTAVYYCARERLVRAFDIWGQGTMVTVSS
VL: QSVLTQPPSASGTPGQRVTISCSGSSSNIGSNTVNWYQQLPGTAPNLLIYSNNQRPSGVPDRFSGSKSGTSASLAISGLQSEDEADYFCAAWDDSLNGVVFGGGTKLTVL
notes: as for B6
B14: CCL-204A (antibody, V domains shown)
VH: B11 VH with V24I, G26S, N30S, N56S, N60H, L77H, S83T, Y103F, A108G
VL: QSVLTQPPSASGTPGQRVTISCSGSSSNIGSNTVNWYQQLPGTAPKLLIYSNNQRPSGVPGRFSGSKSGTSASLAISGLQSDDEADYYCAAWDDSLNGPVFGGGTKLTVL
notes: as for B6
B15: CCL-346A (antibody, V domains shown)
VH: B11 VH with N30S, I51F, N56S, N58S, Y59C, L77Q, R99G, L100I, T101L, A108G
VL: not shown
notes: as for B6
B16: CCL-205A (antibody, V domains shown)
VH: QVQLQESGPGLVKPSETLSLTCTVSGGSISSYYWSWIRQPAGKGLEWIGRIYISGSIYNNPSLKSRVTMSVDTSKNQFSLKLSSVTAADTAVYYCARDRVGMTFDIWGQGTMVTVSS
VL: not shown
notes: as for B6
B17: CCL-332A (antibody, V domains shown)
VH: EVQLVESGGGLVQPGGSLRLSCAASGFTFSSYSMNWVRQAPGKGLEWVSYISSSSSTIYYADSVKGRFTISRDNAKNSLYLQMNSLRDEDTAVYYCARDYYGSSGYYYPHAFDIWGQGTMVTVSS
VL: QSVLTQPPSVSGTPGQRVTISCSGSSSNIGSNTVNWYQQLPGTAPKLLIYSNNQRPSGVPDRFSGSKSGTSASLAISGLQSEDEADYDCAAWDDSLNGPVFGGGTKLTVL
notes: as for B6
B18: CCL-321A (antibody, V domains shown)
VH: EVQLVESGGGLVQPGGSLRLSCAASGFTFSSYSMNWVRQAPGKGLEWVSYISSSSSTIYYSDSVRGRFTISRDNAKNSLYLQMDSLRDEDTAVYYCARDSTMIVVVKVPDAFDIWGQGTMVTVSS
VL: not shown
notes: as for B6
B19: CCK-541A (antibody, V domains shown)
VH: QVQLQESGPGLVKPSETLSLTCTVSGASISTYFWSWLRQPPGKGLEWIGYIFYSGSINYNPSLKSRVTISVDTSKNQFSLELSSVTAADTAVYYCARDRTFYGMDVWGQGTTVTVSS
VL: EIVLTQSPGTLSLPPGERATLSCRASQNVSSTYLAWYHQKPGQAPRLLIYGASSRATGIPDRFSGSGSGTDFTLTISRLEPEDFAVYYCQQYGSSPRTFGQGTKVEIK
notes: as for B1
B20: CCK-465A (antibody, V domains shown)
VH: QVQLQESGPGLVKPSETLSLSCTVSGGSISSYYWSWIRQPAGKGLEWIGRIYTSGSTNYNPSLKSRVTMSVDTSKNQFSLKLSSVTAADTAVYYCARDRSFYGMDVWGQGTTVTVSS
VL: DIQMTQSPSSLSASVGDRVTITCRASQGFSNYLAWYQQKPGKVPKLLIYAASTLQSGVPSRFSGSGSGTDFTLTISSLQPEDVATYYCQKYNSAPLTFGGGTKVEIK
notes: as for B1

What follows are binders tested against T1, native CD115 on OCI-AML5 cells (UniProt P07333 20-972, limits assumed) (assay: cell-based or functional assay).

| IC50, inhibition of CSF-1 induced phosphorylation of CD115 | Binder |
| --- | --- |
| 0.57 nM | B1 |
| 1.35 nM | B2 |

Target: T1, native CD115 on OCI-AML5 cells
Experiment: cell-based or functional assay
Remark: another data set of the same source

| IC50, inhibition of CSF-1 induced P-Tyr on CD115 | Binder |
| --- | --- |
| 0.068 nM | B3 |
| 0.059 nM | B4 |
| 0.06 nM | B5 |

The binders below were run against T2, human CD115 extracellular domain (Sino Biological 10161-H08H) (human, UniProt P07333 20-517) (assay: ELISA, supernatant on huCD115).
T2 construct: extracellular domain; bought recombinant protein; also called huCD115; hu-CD115

| binding result | Binder |
| --- | --- |
| binds | B6 |
| binds | B7 |
| binds | B8 |
| binds | B9 |
| binds | B10 |
| binds | B11 |
| binds | B12 |
| binds | B13 |
| binds | B14 |
| binds | B15 |
| binds | B16 |
| binds | B17 |
| binds | B18 |

What follows are binders tested against T1, native CD115 on OCI-AML5 cells (assay: FACS, supernatant on OCI-AML5 cells).

| binding result | Binder |
| --- | --- |
| binds | B6 |
| binds | B7 |
| binds | B8 |
| binds | B9 |
| binds | B10 |
| binds | B11 |
| binds | B12 |
| binds | B13 |
| binds | B14 |
| binds | B15 |
| binds | B16 |
| binds | B17 |
| binds | B18 |

What follows are binders tested against T2, human CD115 extracellular domain (Sino …) (assay: competition ELISA, competitor TMR 20A;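 further: epitope binning by ELISA, anti-huCD115 hybridoma supernatant antibodies tested for binding to huCD115 with the competitor antibody present, loss of binding placing them in the competitor's bin; low signal means same epitope bin as the mouse competitor antibody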).

| signal vs NO COMP=100 | Binder |
| --- | --- |
| 97% | B1 |
| 34% | B19 |
| 94% | B2 |
| 78% | B20 |

These binders were tested against T2, human CD115 extracellular domain (Sino …) (assay: competition ELISA, competitor TMR 24A;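 further: clonal anti-huCD115 hybridoma supernatant antibodies bound with a competitor mouse antibody present, and failure to bind puts a clone in that competitor's epitope bin; low signal means same epitope bin as the mouse competitor antibody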).

| signal vs NO COMP=100 | Binder |
| --- | --- |
| 31% | B1 |
| 109% | B19 |
| 37% | B2 |
| 81% | B20 |

Each binder was assayed against T2, human CD115 extracellular domain (Sino …) (assay: competition ELISA, competitor TMR 35A;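 further: clonal hybridoma supernatant antibodies added to wells after the competitor mouse antibody, lost binding signal puts an antibody in that competitor's epitope bin; low signal means same epitope bin as the mouse competitor antibody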).

| signal vs NO COMP=100 | Binder |
| --- | --- |
| 96% | B1 |
| 111% | B19 |
| 107% | B2 |
| 88% | B20 |

The binders below were run against T2, human CD115 extracellular domain (Sino …) (assay: competition ELISA, competitor TMR 44B;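 further: binding of antibodies from single-clone hybridoma supernatants to huCD115 measured with the competitor antibody present, a drop in signal meaning both share an epitope bin; low signal means same epitope bin as the mouse competitor antibody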).

| signal vs NO COMP=100 | Binder |
| --- | --- |
| 46% | B1 |
| 15% | B19 |
| 53% | B2 |
| 8% | B20 |

What follows are binders tested against T2, human CD115 extracellular domain (Sino …) (assay: competition ELISA, competitor TMR 95A).

| signal vs NO COMP=100 | Binder |
| --- | --- |
| 11% | B1 |
| 42% | B19 |
| 21% | B2 |
| 41% | B20 |

These binders were tested against T2, human CD115 extracellular domain (Sino …) (assay: competition ELISA, competitor TMR 100A).

| signal vs NO COMP=100 | Binder |
| --- | --- |
| 93% | B1 |
| 93% | B19 |
| 104% | B2 |
| 92% | B20 |

What follows are binders tested against T2, human CD115 extracellular domain (Sino …) (assay: SPR ProteOn, mAb amine coupled, Hu CD115 analyte).

| Kd | koff | kon | Binder |
| --- | --- | --- | --- |
| 1.2 nM | 0.017 s⁻¹ | 1.2e+07 M⁻¹ s⁻¹ | B3 |
| 1.3 nM | 0.014 s⁻¹ | 1.3e+07 M⁻¹ s⁻¹ | B4 |
| 1.3 nM | 0.015 s⁻¹ | 1.1e+07 M⁻¹ s⁻¹ | B5 |

These binders were tested against T2, human CD115 extracellular domain (Sino …) (assay: ELISA, blocking of biotin-CSF-1 binding to coated hu-CD115).

| IC50 | Binder |
| --- | --- |
| 0.355 nM | B1 |
| 0.811 nM | B2 |

Target: T2, human CD115 extracellular domain (Sino …)
Experiment: as above
Remark: another data set of the same source

| IC50 | Binder |
| --- | --- |
| 0.146 nM | B3 |
| 0.253 nM | B4 |
| 0.133 nM | B5 |

The binders below were run against T2, human CD115 extracellular domain (Sino …) (assay: SPR ProteOn, supernatant mAb captured on anti-mouse IgG, Hu CD115 analyte).

| Kd | koff | kon | Binder |
| --- | --- | --- | --- |
| 1.4 nM | 0.000374 s⁻¹ | 267000 M⁻¹ s⁻¹ | B19 |
| 1.41 nM | 0.000749 s⁻¹ | 531000 M⁻¹ s⁻¹ | B20 |
